Source: patent publication US20060165686A1 (NOVIMMUNE S A, published 2006)
One block for each binder: values may come before it.

Assays:
Assay in all cases: cell-based or functional assay
[1] = target: human toll-like receptor 4 (TLR4) (human, UniProt O00206 24-839)
[2] = target: human toll-like receptor 2 (TLR2) (human, UniProt O60603 21-784)
[3] = target: T1, human MD-2 accessory protein (human, UniProt Q9Y6Y9 19-160)
T1 chain: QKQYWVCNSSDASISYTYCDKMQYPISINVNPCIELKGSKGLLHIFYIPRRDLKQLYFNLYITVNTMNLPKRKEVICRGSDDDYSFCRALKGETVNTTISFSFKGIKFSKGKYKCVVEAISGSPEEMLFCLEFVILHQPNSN

Sequence of human toll-like receptor 2 (TLR2) (O60603 21-784): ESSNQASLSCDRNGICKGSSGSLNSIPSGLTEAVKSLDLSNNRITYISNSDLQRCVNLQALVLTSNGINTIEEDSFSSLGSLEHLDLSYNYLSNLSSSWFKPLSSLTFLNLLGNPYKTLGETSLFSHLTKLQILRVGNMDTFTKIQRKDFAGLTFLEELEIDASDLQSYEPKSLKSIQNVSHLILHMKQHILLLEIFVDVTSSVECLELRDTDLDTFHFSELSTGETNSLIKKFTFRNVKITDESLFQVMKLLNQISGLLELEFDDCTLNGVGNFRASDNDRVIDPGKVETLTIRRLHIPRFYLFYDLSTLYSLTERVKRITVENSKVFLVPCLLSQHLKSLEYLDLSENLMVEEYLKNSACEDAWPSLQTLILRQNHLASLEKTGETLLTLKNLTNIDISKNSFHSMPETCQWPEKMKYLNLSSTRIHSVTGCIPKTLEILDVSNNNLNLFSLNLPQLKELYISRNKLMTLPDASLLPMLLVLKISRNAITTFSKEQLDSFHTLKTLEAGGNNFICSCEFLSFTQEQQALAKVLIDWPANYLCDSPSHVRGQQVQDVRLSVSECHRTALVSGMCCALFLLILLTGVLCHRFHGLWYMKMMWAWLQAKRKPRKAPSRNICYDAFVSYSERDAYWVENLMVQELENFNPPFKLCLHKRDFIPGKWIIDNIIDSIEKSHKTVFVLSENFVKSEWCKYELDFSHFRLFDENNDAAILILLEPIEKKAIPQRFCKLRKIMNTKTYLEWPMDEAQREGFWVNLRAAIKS
Sequence of human toll-like receptor 4 (TLR4) (O00206 24-839 limits assumed): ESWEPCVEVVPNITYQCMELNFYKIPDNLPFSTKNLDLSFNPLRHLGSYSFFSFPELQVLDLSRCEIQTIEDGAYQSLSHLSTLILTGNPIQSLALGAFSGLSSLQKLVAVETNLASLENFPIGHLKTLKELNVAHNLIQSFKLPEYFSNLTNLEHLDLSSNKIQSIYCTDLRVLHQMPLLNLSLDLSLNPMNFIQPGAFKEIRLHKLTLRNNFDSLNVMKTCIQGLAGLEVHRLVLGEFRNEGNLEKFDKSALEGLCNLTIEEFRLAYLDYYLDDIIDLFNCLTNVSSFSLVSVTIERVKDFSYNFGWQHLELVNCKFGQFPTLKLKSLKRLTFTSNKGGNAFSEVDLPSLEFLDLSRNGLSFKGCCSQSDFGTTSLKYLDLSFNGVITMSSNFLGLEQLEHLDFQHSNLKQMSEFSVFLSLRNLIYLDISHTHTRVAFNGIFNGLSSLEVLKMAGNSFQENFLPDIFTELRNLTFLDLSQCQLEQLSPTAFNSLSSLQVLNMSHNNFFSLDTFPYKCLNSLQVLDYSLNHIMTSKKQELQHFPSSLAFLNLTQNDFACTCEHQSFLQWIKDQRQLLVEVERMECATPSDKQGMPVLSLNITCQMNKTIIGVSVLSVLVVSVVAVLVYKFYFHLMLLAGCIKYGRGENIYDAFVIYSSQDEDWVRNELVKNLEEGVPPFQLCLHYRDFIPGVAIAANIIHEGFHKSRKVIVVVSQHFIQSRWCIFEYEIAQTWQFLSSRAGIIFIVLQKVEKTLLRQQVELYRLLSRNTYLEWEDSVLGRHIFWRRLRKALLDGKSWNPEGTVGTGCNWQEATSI

IL-6 production induced by pseudomonas LPS in human whole blood [1]: ~50%
B1: α-human TLR4 MAb 15C1 (murine 15C1 monoclonal antibody) (antibody, mouse IgG1, V domains shown)
VH: DVQLQESGPDLIQPSQSLSLTCTVTGYSITGGYSWHWIRQFPGNKLEWMGYIHYSGYTDFNPSLKTRISITRDTSKNQFFLQLNSVTTEDTATYYCARKDPSDGFPYWGQGTLVTVSA
VL: DIVMTQSPATLSVTPGDRVSLSCRASQSISDHLHWYQQKSHESPRLLIKYASHAISGIPSRFSGSGSGTDFTLSIKSVEPEDIGVYYCQNGHSFPLTFGAGTKLELK

IL-6 production induced by pseudomonas LPS in human whole blood [2]: ~50%
B2: α-human TLR2 MAb T2.5 (antibody, V domains shown)
VH: QVQLQQSGPELVNPGASVKLSCKASGFTFTTYGINWVKQGPGQGLEWIGWIYPRDGSTNFNENFKDKAALTVDTSSSTAYMELHSLTSEDSAVYFCARLTGGTFLDWWGQGTTLTVSS
VL: DIVLTQSPASLAVSLGQRATISCRASESVEYYGTSLMQWYQQKPGQPPKLLIFGASNVESGVPVRFSGSGSGTDFSLNIHPVEEDDIVMYFCQQSRKLPWTFGGGTKLEIKR

IL-6 production induced by pseudomonas LPS in human whole blood [3]: ~50%
B3: α-human MD-2 MAb 18H10 (murine 18H10 monoclonal antibody) (antibody, mouse IgG2b, V domains shown)
VH: QVQLQQSGADLVRPGALVKLSCTASGFNIKDSYIHWVKKRPEWGLEWIGWTDPENVNSIYDPRFQGKASITADTSSNTAFLQLTSLTSEDTAVYYCARGYNGVYYAMDYWGQGTSVTVSS
VL: QIVLTQSPSIMSASLGEEITLTCSASSSVIYMHWYQQKSGTSPKLLIYRTYNLASGVPSRFSGSGSGTFYSLTISSVEAEDAADYYCHQWSSFPYTFGGGTKLEIKR
